# Molecular target: T1, rogf8_arath ROPGEF8 (UniProt Q9LV40)
# T1 sequence: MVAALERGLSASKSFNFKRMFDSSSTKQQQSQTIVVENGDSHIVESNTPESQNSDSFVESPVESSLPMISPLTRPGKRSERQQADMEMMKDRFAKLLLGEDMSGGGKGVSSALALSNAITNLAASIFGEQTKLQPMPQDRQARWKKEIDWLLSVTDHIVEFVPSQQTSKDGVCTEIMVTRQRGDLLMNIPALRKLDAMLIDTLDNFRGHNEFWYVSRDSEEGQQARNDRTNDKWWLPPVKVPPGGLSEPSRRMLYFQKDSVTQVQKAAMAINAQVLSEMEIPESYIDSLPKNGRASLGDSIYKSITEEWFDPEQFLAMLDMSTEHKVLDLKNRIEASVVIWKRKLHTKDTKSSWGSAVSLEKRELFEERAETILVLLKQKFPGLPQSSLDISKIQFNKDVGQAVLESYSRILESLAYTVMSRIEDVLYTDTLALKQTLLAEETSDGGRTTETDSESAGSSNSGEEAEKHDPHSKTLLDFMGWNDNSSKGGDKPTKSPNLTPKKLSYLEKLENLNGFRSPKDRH
substance,measurement,value
Ras-related C3 botulinum toxin substrate 1 (Homo sapiens) (from UniProt P63000) P73C,effect of a mutation on the interaction,increasing interaction
